Molecular target: APC (UniProt P25054)
Assay: Flag co-IP, immunoblot
Conditions: reference: wild-type Flag:α-catenin; sites Y177

binding against the reference: stronger
Substance: α-catenin (from UniProt P35221) Y177F
